Laboratory results from patent US20190112365A1 (EISAI R AND D MANAGEMENT, published 2019).

Tests used:
[1] = biological target: T1, Human Tau 2N4R, wild type, recombinant full length (human, UniProt P10636 2-758); assay: SPR BIAcore, mAb captured by anti-mouse IgG, Tau flowed, 1:1 Langmuir
T1 construct: Full length 2N4R isoform; monomer in SPR and ELISA; heparin-induced aggregates or seeds in the functional assays; also called Tau441; Tau-441
Protocol: (§1) All experiments were performed using a BIAcore™ T-100 instrument (GE Healthcare). 10 μL anti-human IgG (monoclonal mouse anti-human Fc) from human antibody capture kit (GE Healthcare) was diluted to 25 μL/mL in 200 μL final immobilization buffer (10 mM sodium acetate, pH 5.0). The flow rate was set to 5 μL/min, flowpath 1. Fifty μL N-hydroxysuccinamide (NETS) and 50 μL 1-ethyl-3-(3-dimethylaminopropyl) carbidiimide (EDC) were mixed and injected for 420 sec to activate the CM5 chip surface. The diluted antibody was injected for 360 seconds followed by 1 M ethanolamine for 420 seconds. The flowpath was then switched to flowpath 2. A new EDC/NHS mixture was prepared and the procedure was repeated for flow cell 2. The surface was conditioned by 2 injections of 30 sec using flowpath 1, 2 at 30 μL/min of 3M MgCl₂. For the anti-mouse surface, 10 μL anti-mouse IgG (polyclonal rabbit anti-mouse IgG) from mouse antibody capture kit (GE Healthcare) was diluted to 30 μL/mL in 324 μL final immobilization buffer (10 mM sodium acetate, pH 5.0). The flow rate was set to 5 μL/min, flowpath 3. Fifty μL NHS and 50 μL EDC were mixed and injected for 420 sec to activate the chip surface. The diluted antibody was injected for 420 sec. 1 M ethanolamine was injected for 420 sec. Flow path was switched to flowpath 4. A new EDC/NHS mixture was prepared and the procedure was repeated for flow cell 4. The surface was conditioned by 2 injections of 30 sec using flowpath 3, 4 at 30 μL/min of 10 mM glycine, pH 1.7.
(§2) Binding of humanized and mouse antibodies were analyzed by BIAcore™ to determine their relative association rates (ka), dissociation rates (kd), and equilibrium binding constants (KD). Anti-mouse or anti-human antibodies were immobilized on a CM5 chip and sample mAbs were captured on the chip. 2N4R Tau was flowed over the chip and binding observed. The binding constants kₐ, kd, and KD were determined using a 1:1 Langmuir fitting model. Both 7G6-HCzu12-based mAbs had similar kₐ and kd values (Table 8). However, the kₐ of 7G6-HCzu11 was decreased, though the kd was unaffected. Therefore, human residues in the Vh3 framework impact binding to Tau.

[2] = biological target: T1, Human Tau 2N4R, wild type, recombinant …; assay: SPR BIAcore, biotinylated mAb on streptavidin (CAP) chip, single cycle, 1:1 Langmuir
Protocol: 400 μg of each antibody was diluted to 2 mg/mL and buffer-exchanged into 0.1 M sodium bicarbonate, pH 8.3 using 0.5 mL Zeba™ 40 kDa MWCO desalting columns (Thermo). NHS-PEG4-biotin, prepared immediately before use by dissolving in water to a 20 mM final stock concentration, was added to antibodies at a 5:1 molar ratio (biotin:MAb) and conjugated for 1 hr at room temperature. Excess biotin was removed by two sequential buffer exchanges into 1×DPBS using 0.5 mL Zeba™ 40 kDa MWCO desalting columns. For the BIAcore™ assay, antibodies were diluted to 2 μg/mL in PBS-P+/0.2% BSA (the same preparation used for the running buffer), centrifuged at 14,000 g for 5 min at room temperature, and the supernatant transferred to a new tube. Injection time was subsequently determined for each antibody to achieve a capture level of ˜225 RU.
Biotinylated humanized and mouse mAbs were captured on a streptavidin-coated chip and kₐ, kd, and KD were determined for binding to Tau (Table 11). […] The affinity of 7G6-HCzu8-LCzu6, 7G6-HCzu24-LCzu15, 7G6-HCzu24-LCzu18, 7G6-HCzu25-LCzu15, and 7G6-HCzu25-LCzu18 were all similar.

[3] = biological target: T2, HVPGG site of Tau (15-mer array peptides containing HVPGG) (human); assay: peptide microarray; HVPGG site of the second repeat region against HKPGG (repeat region 3)
T2 peptide: HVPGG
Protocol: The diluted antibody was incubated on the chip for 16 hours at 4° C. with shaking at 140 rpm. Primary antibody was removed and the chip was washed in PBS (pH 7.4)/0.05% Tween 20. Wash buffer was removed and goat anti-mouse IgG (H+L) DyLight™680 (1:5000) and an anti-HA tag DyLight™ 800 (1:2000) in the same buffer as the primary antibody was then incubated for 45 minutes at room temperature on the chip. Detection antibody was removed and the chip was washed once again as previously. Fluorescence images were acquired on the LI-COR Odyssey™ Imaging System and the microarray data was finally analyzed using the PepSlide™ Analyser software.

[4] = biological target: T1, Human Tau 2N4R, wild type, recombinant …; assay: SPR BIAcore, mAb captured by anti-mouse IgG, Tau flowed, 1:1 Langmuir; remark: listed apart in the source
Protocol: as §1, §2

[5] = biological target: T3, Tau peptide KDNIKHVSGGGSVQI (human); assay: epitope substitution scanning on peptide chip
T3 construct: Variant peptide of the substitution scan
T3 peptide: KDNIKHVSGGGSVQI
Description: FIG. 4 illustrates the results of the murine 7G6 antibody epitope substitution scanning of the peptide sequence […] (SEQ ID NO: 26), corresponding to amino acids 294 to 308 of the human 2N4R Tau protein. Each amino acid position of the peptide was replaced by every naturally occurring amino acid possible, printed onto a glass chip, and probed with the ms7G6 antibody. FIG. 4 illustrates the results for select peptides (SEQ ID NOs 38-78, respectively). While ms7G6 antibody binding allows some variation in the second position (valine) of SEQ ID NO: 79, antibody binding is completely dependent on the proline residue of SEQ ID NO: 79. No binding of antibody 7G6 to […] (SEQ ID NO: 59) was observed. The latter is the sequence present in Tau P301S mutant protein.
The ms7G6 anti-Tau antibody was diluted to a concentration of 1 μg/mL in PBS (pH 7.4) containing 0.05% Tween 20 and 10% Rockland blocking buffer (MB-070). The diluted antibody was incubated on the chip for 16 hours at 4° C. with shaking at 140 rpm. Primary antibody was removed and the chip was washed in PBS (pH 7.4)/0.05% Tween 20. […] Fluorescence images were acquired on the LI-COR Odyssey™ Imaging System and the microarray data was finally analyzed using the PepSlide™ Analyser software.

T1 sequence (P10636 other isoform, or with tags, fused parts or gaps limits assumed): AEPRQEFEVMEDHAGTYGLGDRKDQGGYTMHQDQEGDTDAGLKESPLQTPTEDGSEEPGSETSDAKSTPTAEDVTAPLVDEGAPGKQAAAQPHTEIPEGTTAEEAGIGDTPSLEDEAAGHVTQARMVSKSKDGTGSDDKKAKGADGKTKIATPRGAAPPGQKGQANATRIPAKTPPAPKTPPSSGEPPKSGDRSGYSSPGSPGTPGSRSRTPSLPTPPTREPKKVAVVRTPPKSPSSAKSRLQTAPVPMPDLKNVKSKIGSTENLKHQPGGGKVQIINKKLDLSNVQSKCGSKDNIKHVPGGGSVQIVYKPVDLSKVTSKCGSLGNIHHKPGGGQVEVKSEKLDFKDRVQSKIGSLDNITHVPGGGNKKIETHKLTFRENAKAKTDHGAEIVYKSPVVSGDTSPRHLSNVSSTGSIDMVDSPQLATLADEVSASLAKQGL

- Kd [1]: 3.31 nM
- koff [1]: 0.00153 s⁻¹
- kon [1]: 464000 M⁻¹ s⁻¹
- Kd [2]: 0.0636 nM
- koff [2]: 0.000195 s⁻¹
- kon [2]: 3.11e+06 M⁻¹ s⁻¹
- fold preference in binding (average signal intensities) [3]: 38 fold
- Kd [4]: 3.31 nM
- koff [4]: 0.00153 s⁻¹
- kon [4]: 464000 M⁻¹ s⁻¹
- binding result [5]: no binding (tested: 1 µg/mL)
B1: murine 7G6 antibody (antibody, mouse IgG2b, V domains shown)
VH: QVQLLQPGAELVKPGASVIMSCKASGYTFTTYWITWVKQRPGQGLEWIGDIYPGSSICNYNEKFKSKATLTVDTSSSTAYMQLNSLTSEDSAVYYCAREDGYDAWFAYWGQGTLVTVSA
VL: DVLMTQTPLSLPVSLGDQASISCRSSQSILHSNGNTYLEWYLQKPGQSPKLLICKVSNRFSGVPDRFSGSGSGTDFTLKISRVEAEDLGVYYCFQGSHVPFTFGSGTKLEIK
notes: Mouse IgG2b, kappa, purified from hybridoma; also called ms7G6; mouse 7G6
